What was measured:
[1] = target: M2 peptide (influenza A virus, A/Hong Kong/1/68 (H3N2)); test: ELISA on peptide, Ab 10 µg/ml
[2] = target: M2LTKGS peptide conjugated with BSA (influenza A virus, A/Hong Kong/542/97 (H5N1)); test: peptide-BSA ELISA
[3] = target: M2HTGEKS peptide conjugated with BSA (influenza A virus, A/chicken/California/1002a/00 (H6N2)); test: peptide-BSA ELISA
[4] = target: M2TDGEKS peptide conjugated with BSA (influenza A virus, A/chicken/Pennsylvania/13552-1/98 (H7N2NSB)); test: peptide-BSA ELISA
[5] = target: M2TGEK-BSA conjugate (influenza A virus, A/Netherlands/33/03 (H7N7)); test: peptide-BSA ELISA
[6] = target: M2PHTGS peptide conjugated with BSA (influenza A virus, A/chicken/HongKong/YU427/03 (H9N2)); test: peptide-BSA ELISA
[7] = target: M2LTGEKS-BSA conjugate (influenza A virus, A/Hong Kong/1074/99 (H9N2)); test: peptide-BSA ELISA
[8] = target: M2KTGEKS peptide conjugated with BSA (influenza A virus, A/Quail/Arkansas/16309-7/94 (H7N3NSA)); test: peptide-BSA ELISA
[9] = target: M2LTGS peptide conjugated with BSA (influenza A virus, A/Hong Kong/156/97 (H5N1)); test: peptide-BSA ELISA
[10] = target: M2GHTGKS peptide conjugated with BSA (influenza A virus, A/chicken/HongKong/SF1/03 (H9N2)); test: peptide-BSA ELISA
[11] = target: M2TES peptide conjugated with BSA (influenza A virus, A/Viet Nam/1203/2004 (H5N1)); test: peptide-BSA ELISA (++ EC50<10^-9M; + 10^-9M<EC50<10^-8M)
[12] = target: M2DLTGS peptide conjugated with BSA (influenza A virus, A/Hong Kong/485/97 (H5N1)); test: as above
[13] = target: M2TGS-BSA conjugate (influenza A virus, A/chicken/Shanghai/F/98 (H9N2)); test: as above
[14] = target: M2KGENS peptide conjugated with BSA (influenza A virus, A/Turkey/VA/158512/02 (H7N2)); test: as above
[15] = target: M2-BSA conjugate (influenza A virus, A/Hong Kong/1/68 (H3N2)); test: as above
[16] = target: M2SG peptide conjugated with BSA (influenza A virus, A/swine/Tennessee/25/77 (H1N1)); test: as above
[17] = target: M2TGE-BSA conjugate (influenza A virus, A/DK/ST/5048/2001 (H3N8)); test: as above
[18] = target: M2EG peptide conjugated with BSA (influenza A virus, A/New York/687/1995 (H3N2)); test: as above
[19] = target: M2TGEKS peptide conjugated with BSA (influenza A virus, A/Canada/rv504/2004 (H7N3)); test: as above
[20] = target: M2FG peptide conjugated with BSA (influenza A virus, A/X-31 (H3N2)); test: as above
[21] = target: M2KTGEKS (influenza A virus, A/Quail/Arkansas/16309-7/94 (H7N3NSA))
[22] = target: M2LTGS (influenza A virus, A/Hong Kong/156/97 (H5N1))
[23] = target: M2HTGEKS (influenza A virus, A/chicken/California/1002a/00 (H6N2))
[24] = target: M2TGE (influenza A virus, A/DK/ST/5048/2001 (H3N8))
[25] = target: M2LTGEKS (influenza A virus, A/Hong Kong/1074/99 (H9N2))
[26] = target: M2LTKGS (influenza A virus, A/Hong Kong/542/97 (H5N1))
[27] = target: M2TGEKS (influenza A virus, A/Canada/rv504/2004 (H7N3))
[28] = target: M2GHTGKS (influenza A virus, A/chicken/HongKong/SF1/03 (H9N2))
[29] = target: M2PHTGS (influenza A virus, A/chicken/HongKong/YU427/03 (H9N2))
[30] = target: M2TDGEKS (influenza A virus, A/chicken/Pennsylvania/13552-1/98 (H7N2NSB))
[31] = target: M2LTKGS peptide conjugated with BSA (influenza A virus, A/Hong Kong/542/97 (H5N1)); test: peptide-BSA ELISA; legend: EC50 > 10^-8M: -
[32] = target: M2HTGEKS peptide conjugated with BSA (influenza A virus, A/chicken/California/1002a/00 (H6N2)); test: peptide-BSA ELISA; legend: EC50 > 10^-8M: -
[33] = target: M2TDGEKS peptide conjugated with BSA (influenza A virus, A/chicken/Pennsylvania/13552-1/98 (H7N2NSB)); test: peptide-BSA ELISA; legend: EC50 > 10^-8M: -
[34] = target: M2TGEK-BSA conjugate (influenza A virus, A/Netherlands/33/03 (H7N7)); test: peptide-BSA ELISA; legend: EC50 > 10^-8M: -
[35] = target: M2PHTGS peptide conjugated with BSA (influenza A virus, A/chicken/HongKong/YU427/03 (H9N2)); test: peptide-BSA ELISA; legend: EC50 > 10^-8M: -
[36] = target: M2LTGEKS-BSA conjugate (influenza A virus, A/Hong Kong/1074/99 (H9N2)); test: peptide-BSA ELISA; legend: EC50 > 10^-8M: -
[37] = target: M2KTGEKS peptide conjugated with BSA (influenza A virus, A/Quail/Arkansas/16309-7/94 (H7N3NSA)); test: peptide-BSA ELISA; legend: EC50 > 10^-8M: -
[38] = target: M2LTGS peptide conjugated with BSA (influenza A virus, A/Hong Kong/156/97 (H5N1)); test: peptide-BSA ELISA; legend: EC50 > 10^-8M: -
[39] = target: M2GHTGKS peptide conjugated with BSA (influenza A virus, A/chicken/HongKong/SF1/03 (H9N2)); test: peptide-BSA ELISA; legend: EC50 > 10^-8M: -

mouse anti-M2 antibody 14C2 gave an ELISA(OD450) [1] of 1.97 OD450, an EC50 [2] of over 10 nM and an EC50 [3] of over 10 nM. The EC50 [4] was over 10 nM, the EC50 [5] was over 10 nM and the EC50 [6] was over 10 nM. The EC50 [7] was over 10 nM, the EC50 [8] was over 10 nM and the EC50 [9] was over 10 nM. The EC50 [10] was over 10 nM, the EC50 [11] was under 1 nM and the EC50 [12] was 1 to 10 nM. It also gave an EC50 [13] of under 1 nM, an EC50 [14] of under 1 nM and an EC50 [15] of under 1 nM. For the same substance, the EC50 [16] was under 1 nM, the EC50 [17] was under 1 nM and the EC50 [18] was under 1 nM. The EC50 [19] was 1 to 10 nM, the EC50 [20] was under 1 nM and the % of O.D. on M2 (SEQ ID NO:1) [21] was under 10%. For the same substance, the % of O.D. on M2 (SEQ ID NO:1) [22] was under 10%, the % of O.D. on M2 (SEQ ID NO:1) [23] was under 10% and the % of O.D. on M2 (SEQ ID NO:1) [24] was under 10%. For the same substance, the % of O.D. on M2 (SEQ ID NO:1) [25] was under 10%, the % of O.D. on M2 (SEQ ID NO:1) [26] was under 10% and the % of O.D. on M2 (SEQ ID NO:1) [27] was under 10%. It also gave a % of O.D. on M2 (SEQ ID NO:1) [28] of under 10%, a % of O.D. on M2 (SEQ ID NO:1) [29] of under 10% and a % of O.D. on M2 (SEQ ID NO:1) [30] of under 10%. It also gave an EC50 [31] of over 10 nM, an EC50 [32] of over 10 nM and an EC50 [33] of over 10 nM. The EC50 [34] was over 10 nM, the EC50 [35] was over 10 nM and the EC50 [36] was over 10 nM. It also gave an EC50 [37] of over 10 nM, an EC50 [38] of over 10 nM and an EC50 [39] of over 10 nM.
